Here are results for 19 variants from the supplement of paper PMC10266784.

First the molecules themselves.
B1: library; numbered along this chain (parent)
chain: MAAAAAAAAEQQSSNGPVKKSMREKAVERRSVNKEHNSNFKAGYIPIDEDRLHKTGLRGRKGNLAICVIILLFILAVINLIITLVIWAVIRIGPNGCDSMEFHESGLLRFKQVSDMGVIHPLYKSTVGGRRNENLVITGNNQPIVFQQGTTKLSVENNKTSITSDIGMQFFDPRTQNILFSTDYETHEFHLPSGVKSLNVQKASTERITSNATSDLNIKVDGRAIVRGNEGVFIMGKTIEFHMGGNMELKAENSIILNGSVMVSTTRLPSSSSGDQLGSGDWVRYKLCMCADGTLFKVQVTSQNMGCQISDNPCGNTH

In the data set the parent is B1. The experiment in a line: SGCB cell-surface expression functional score (HA stain, bin4 vs bin1, normalised to synonymous) (log10 ratio); higher = more cell-surface SGCB (functional). In a few lines: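 Codon-saturation libraries of HA-tagged, YFP-fused human beta-sarcoglycan were lentivirally transduced at MOI <0.1 into HEK293 cells stably expressing alpha-, gamma- and delta-sarcoglycan. YFP-positive cells were sorted after 72 hours, grown 5–7 days, stained on ice with Alexa Fluor 647 anti-HA, fixed, sorted into four 5% intensity bins and amplicon-sequenced. The functional score is the log ratio of highest-bin to lowest-bin variant frequency, taken as the median over codons and duplicate transductions. Synonymous variants were scaled per section to mean 0, SD 0.5.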
MAAAAAAAAEQQSSNGPVKKSMREKAVERRSVNKEHNSNFKAGYIPIDEDRLHKTGLRGRKGNLAICVIILLFILAVINLIITLVIWAVIRIGPNGCDSMEFHESGLLRFKQVSDMGVIHPLYKSTVGGRRNENLVITGNNQPIVFQQGTTKLSVENNKTSITSDIGMQFFDPRTQNILFSTDYETHEFHLPSGVKSLNVQKASTERITSNATSDLNIKVDGRAIVRGNEGVFIMGKTIEFHMGGNMELKAENSIILWGSVMVSTTRLPSSSSGDQLGSGDWVRYKLCMCADGTLFKVQVTSQNMGCQISDNPCGNTH [N258W]: the “SGCB cell-surface expression functional score (log10)” value came to 0.

MAAAAAAAAEQQSSNGPVKKSMREKAVERRSVNKEHNSNFKAGYIPIDEDRLHKTGLRGRKGNLAICVIILLFILAVINLIITLVIWAVIRIGPNGCDSMEFHESGLLRFKQVSDMGVIHPLYKSTVGGRRNENLVITGNNQPIVFQQGTTKLSVENNKTSITSDIGMQFFDPRTQNILFSTDYETHEFHLPSGVKSLNVQKASTERITSNATSDLNIKVDGRAIVRGNEGVFIMGKTIEFHMGGNMELKAENSIILYGSVMVSTTRLPSSSSGDQLGSGDWVRYKLCMCADGTLFKVQVTSQNMGCQISDNPCGNTH [N258Y]: the “SGCB cell-surface expression functional score (log10)” value is 0.03. As for MAAAAAAAAEQQSSNGPVKKSMREKAVERRSVNKEHNSNFKAGYIPIDEDRLHKTGLRGRKGNLAICVIILLFILAVINLIITLVIWAVIRIGPNGCDSMEFHESGLLRFKQVSDMGVIHPLYKSTVGGRRNENLVITGNNQPIVFQQGTTKLSVENNKTSITSDIGMQFFDPRTQNILFSTDYETHEFHLPSGVKSLNVQKASTERITSNATSDLNIKVDGRAIVRGNEGVFIMGKTIEFHMGGNMELKAENSIILNCSVMVSTTRLPSSSSGDQLGSGDWVRYKLCMCADGTLFKVQVTSQNMGCQISDNPCGNTH [G259C], the figure is -0.44; as for MAAAAAAAAEQQSSNGPVKKSMREKAVERRSVNKEHNSNFKAGYIPIDEDRLHKTGLRGRKGNLAICVIILLFILAVINLIITLVIWAVIRIGPNGCDSMEFHESGLLRFKQVSDMGVIHPLYKSTVGGRRNENLVITGNNQPIVFQQGTTKLSVENNKTSITSDIGMQFFDPRTQNILFSTDYETHEFHLPSGVKSLNVQKASTERITSNATSDLNIKVDGRAIVRGNEGVFIMGKTIEFHMGGNMELKAENSIILNASVMVSTTRLPSSSSGDQLGSGDWVRYKLCMCADGTLFKVQVTSQNMGCQISDNPCGNTH [G259A], 0.9. As for MAAAAAAAAEQQSSNGPVKKSMREKAVERRSVNKEHNSNFKAGYIPIDEDRLHKTGLRGRKGNLAICVIILLFILAVINLIITLVIWAVIRIGPNGCDSMEFHESGLLRFKQVSDMGVIHPLYKSTVGGRRNENLVITGNNQPIVFQQGTTKLSVENNKTSITSDIGMQFFDPRTQNILFSTDYETHEFHLPSGVKSLNVQKASTERITSNATSDLNIKVDGRAIVRGNEGVFIMGKTIEFHMGGNMELKAENSIILNDSVMVSTTRLPSSSSGDQLGSGDWVRYKLCMCADGTLFKVQVTSQNMGCQISDNPCGNTH [G259D], the figure is -1.69. The value for MAAAAAAAAEQQSSNGPVKKSMREKAVERRSVNKEHNSNFKAGYIPIDEDRLHKTGLRGRKGNLAICVIILLFILAVINLIITLVIWAVIRIGPNGCDSMEFHESGLLRFKQVSDMGVIHPLYKSTVGGRRNENLVITGNNQPIVFQQGTTKLSVENNKTSITSDIGMQFFDPRTQNILFSTDYETHEFHLPSGVKSLNVQKASTERITSNATSDLNIKVDGRAIVRGNEGVFIMGKTIEFHMGGNMELKAENSIILNVSVMVSTTRLPSSSSGDQLGSGDWVRYKLCMCADGTLFKVQVTSQNMGCQISDNPCGNTH [G259V] was 0.07. Consider MAAAAAAAAEQQSSNGPVKKSMREKAVERRSVNKEHNSNFKAGYIPIDEDRLHKTGLRGRKGNLAICVIILLFILAVINLIITLVIWAVIRIGPNGCDSMEFHESGLLRFKQVSDMGVIHPLYKSTVGGRRNENLVITGNNQPIVFQQGTTKLSVENNKTSITSDIGMQFFDPRTQNILFSTDYETHEFHLPSGVKSLNVQKASTERITSNATSDLNIKVDGRAIVRGNEGVFIMGKTIEFHMGGNMELKAENSIILNMSVMVSTTRLPSSSSGDQLGSGDWVRYKLCMCADGTLFKVQVTSQNMGCQISDNPCGNTH [G259M], for which the “SGCB cell-surface expression functional score (log10)” value is -1.05. For MAAAAAAAAEQQSSNGPVKKSMREKAVERRSVNKEHNSNFKAGYIPIDEDRLHKTGLRGRKGNLAICVIILLFILAVINLIITLVIWAVIRIGPNGCDSMEFHESGLLRFKQVSDMGVIHPLYKSTVGGRRNENLVITGNNQPIVFQQGTTKLSVENNKTSITSDIGMQFFDPRTQNILFSTDYETHEFHLPSGVKSLNVQKASTERITSNATSDLNIKVDGRAIVRGNEGVFIMGKTIEFHMGGNMELKAENSIILNPSVMVSTTRLPSSSSGDQLGSGDWVRYKLCMCADGTLFKVQVTSQNMGCQISDNPCGNTH [G259P], the “SGCB cell-surface expression functional score (log10)” value was -0.37. The value for MAAAAAAAAEQQSSNGPVKKSMREKAVERRSVNKEHNSNFKAGYIPIDEDRLHKTGLRGRKGNLAICVIILLFILAVINLIITLVIWAVIRIGPNGCDSMEFHESGLLRFKQVSDMGVIHPLYKSTVGGRRNENLVITGNNQPIVFQQGTTKLSVENNKTSITSDIGMQFFDPRTQNILFSTDYETHEFHLPSGVKSLNVQKASTERITSNATSDLNIKVDGRAIVRGNEGVFIMGKTIEFHMGGNMELKAENSIILNRSVMVSTTRLPSSSSGDQLGSGDWVRYKLCMCADGTLFKVQVTSQNMGCQISDNPCGNTH [G259R] was -0.34. As for MAAAAAAAAEQQSSNGPVKKSMREKAVERRSVNKEHNSNFKAGYIPIDEDRLHKTGLRGRKGNLAICVIILLFILAVINLIITLVIWAVIRIGPNGCDSMEFHESGLLRFKQVSDMGVIHPLYKSTVGGRRNENLVITGNNQPIVFQQGTTKLSVENNKTSITSDIGMQFFDPRTQNILFSTDYETHEFHLPSGVKSLNVQKASTERITSNATSDLNIKVDGRAIVRGNEGVFIMGKTIEFHMGGNMELKAENSIILNNSVMVSTTRLPSSSSGDQLGSGDWVRYKLCMCADGTLFKVQVTSQNMGCQISDNPCGNTH [G259N], the figure is -0.51; as for MAAAAAAAAEQQSSNGPVKKSMREKAVERRSVNKEHNSNFKAGYIPIDEDRLHKTGLRGRKGNLAICVIILLFILAVINLIITLVIWAVIRIGPNGCDSMEFHESGLLRFKQVSDMGVIHPLYKSTVGGRRNENLVITGNNQPIVFQQGTTKLSVENNKTSITSDIGMQFFDPRTQNILFSTDYETHEFHLPSGVKSLNVQKASTERITSNATSDLNIKVDGRAIVRGNEGVFIMGKTIEFHMGGNMELKAENSIILNKSVMVSTTRLPSSSSGDQLGSGDWVRYKLCMCADGTLFKVQVTSQNMGCQISDNPCGNTH [G259K], -1.06; as for MAAAAAAAAEQQSSNGPVKKSMREKAVERRSVNKEHNSNFKAGYIPIDEDRLHKTGLRGRKGNLAICVIILLFILAVINLIITLVIWAVIRIGPNGCDSMEFHESGLLRFKQVSDMGVIHPLYKSTVGGRRNENLVITGNNQPIVFQQGTTKLSVENNKTSITSDIGMQFFDPRTQNILFSTDYETHEFHLPSGVKSLNVQKASTERITSNATSDLNIKVDGRAIVRGNEGVFIMGKTIEFHMGGNMELKAENSIILNLSVMVSTTRLPSSSSGDQLGSGDWVRYKLCMCADGTLFKVQVTSQNMGCQISDNPCGNTH [G259L], -0.06. The value for MAAAAAAAAEQQSSNGPVKKSMREKAVERRSVNKEHNSNFKAGYIPIDEDRLHKTGLRGRKGNLAICVIILLFILAVINLIITLVIWAVIRIGPNGCDSMEFHESGLLRFKQVSDMGVIHPLYKSTVGGRRNENLVITGNNQPIVFQQGTTKLSVENNKTSITSDIGMQFFDPRTQNILFSTDYETHEFHLPSGVKSLNVQKASTERITSNATSDLNIKVDGRAIVRGNEGVFIMGKTIEFHMGGNMELKAENSIILNHSVMVSTTRLPSSSSGDQLGSGDWVRYKLCMCADGTLFKVQVTSQNMGCQISDNPCGNTH [G259H] was 0.33. For MAAAAAAAAEQQSSNGPVKKSMREKAVERRSVNKEHNSNFKAGYIPIDEDRLHKTGLRGRKGNLAICVIILLFILAVINLIITLVIWAVIRIGPNGCDSMEFHESGLLRFKQVSDMGVIHPLYKSTVGGRRNENLVITGNNQPIVFQQGTTKLSVENNKTSITSDIGMQFFDPRTQNILFSTDYETHEFHLPSGVKSLNVQKASTERITSNATSDLNIKVDGRAIVRGNEGVFIMGKTIEFHMGGNMELKAENSIILNTSVMVSTTRLPSSSSGDQLGSGDWVRYKLCMCADGTLFKVQVTSQNMGCQISDNPCGNTH [G259T], the “SGCB cell-surface expression functional score (log10)” value worked out at 0.55.

For MAAAAAAAAEQQSSNGPVKKSMREKAVERRSVNKEHNSNFKAGYIPIDEDRLHKTGLRGRKGNLAICVIILLFILAVINLIITLVIWAVIRIGPNGCDSMEFHESGLLRFKQVSDMGVIHPLYKSTVGGRRNENLVITGNNQPIVFQQGTTKLSVENNKTSITSDIGMQFFDPRTQNILFSTDYETHEFHLPSGVKSLNVQKASTERITSNATSDLNIKVDGRAIVRGNEGVFIMGKTIEFHMGGNMELKAENSIILNFSVMVSTTRLPSSSSGDQLGSGDWVRYKLCMCADGTLFKVQVTSQNMGCQISDNPCGNTH [G259F], the “SGCB cell-surface expression functional score (log10)” value was -0.46. The value for MAAAAAAAAEQQSSNGPVKKSMREKAVERRSVNKEHNSNFKAGYIPIDEDRLHKTGLRGRKGNLAICVIILLFILAVINLIITLVIWAVIRIGPNGCDSMEFHESGLLRFKQVSDMGVIHPLYKSTVGGRRNENLVITGNNQPIVFQQGTTKLSVENNKTSITSDIGMQFFDPRTQNILFSTDYETHEFHLPSGVKSLNVQKASTERITSNATSDLNIKVDGRAIVRGNEGVFIMGKTIEFHMGGNMELKAENSIILNISVMVSTTRLPSSSSGDQLGSGDWVRYKLCMCADGTLFKVQVTSQNMGCQISDNPCGNTH [G259I] was 0.63; that for MAAAAAAAAEQQSSNGPVKKSMREKAVERRSVNKEHNSNFKAGYIPIDEDRLHKTGLRGRKGNLAICVIILLFILAVINLIITLVIWAVIRIGPNGCDSMEFHESGLLRFKQVSDMGVIHPLYKSTVGGRRNENLVITGNNQPIVFQQGTTKLSVENNKTSITSDIGMQFFDPRTQNILFSTDYETHEFHLPSGVKSLNVQKASTERITSNATSDLNIKVDGRAIVRGNEGVFIMGKTIEFHMGGNMELKAENSIILNSSVMVSTTRLPSSSSGDQLGSGDWVRYKLCMCADGTLFKVQVTSQNMGCQISDNPCGNTH [G259S] was 0.28. As for MAAAAAAAAEQQSSNGPVKKSMREKAVERRSVNKEHNSNFKAGYIPIDEDRLHKTGLRGRKGNLAICVIILLFILAVINLIITLVIWAVIRIGPNGCDSMEFHESGLLRFKQVSDMGVIHPLYKSTVGGRRNENLVITGNNQPIVFQQGTTKLSVENNKTSITSDIGMQFFDPRTQNILFSTDYETHEFHLPSGVKSLNVQKASTERITSNATSDLNIKVDGRAIVRGNEGVFIMGKTIEFHMGGNMELKAENSIILNQSVMVSTTRLPSSSSGDQLGSGDWVRYKLCMCADGTLFKVQVTSQNMGCQISDNPCGNTH [G259Q], the figure is 0.7; as for MAAAAAAAAEQQSSNGPVKKSMREKAVERRSVNKEHNSNFKAGYIPIDEDRLHKTGLRGRKGNLAICVIILLFILAVINLIITLVIWAVIRIGPNGCDSMEFHESGLLRFKQVSDMGVIHPLYKSTVGGRRNENLVITGNNQPIVFQQGTTKLSVENNKTSITSDIGMQFFDPRTQNILFSTDYETHEFHLPSGVKSLNVQKASTERITSNATSDLNIKVDGRAIVRGNEGVFIMGKTIEFHMGGNMELKAENSIILNESVMVSTTRLPSSSSGDQLGSGDWVRYKLCMCADGTLFKVQVTSQNMGCQISDNPCGNTH [G259E], -1.29.
